Experiment: yeast display, Sf9 membrane polyspecificity reagent, FACS + sequencing; frameworks hold sequencing errors
Summary of the method: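 A nanobody's polyreactivity label depends on the gate it was sorted from. Yeast display cells were stained with 10% biotinylated, detergent-solubilized Sf9 membrane reagent for 1 hour at 4 °C, enriched on streptavidin microbeads and sorted by FACS. The low and high (top ~1%) gates were set on anti-HA fluorescence for expression and streptavidin fluorescence for reagent binding.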

| Sequence | polyreactivity (PSR sort gate) |
| --- | --- |
| QVQLEESGGGLVQAGGSLRLSCAASGRIFSYNAMGWSIPAPGKERELVAAISYSGGRTYYADSVKGRFTISRDNAKNTVYLQMNSLKPEDTAVYYCAAKRKIRGYGPYEYWGQGTQVTVSS | high polyreactivity |
| QVQLVESGGGLVQAGGSLRLSCAASGFTFAVYAMGWSRQAAAKERELVAAISRSGTRTYYADSVKGRFTISRDNGKNTVYLQMNSLKPEDTAVYYFAAEVPDTDAYGYWGQGTQVTVSS | low polyreactivity |
| QVQLVESGGGLVQAGGSLRLRCAAMGWYRQAPWKERELVAGITRDGNTYYADSVKGRFTISRDNAKNTVYLQMNSLKPEDTAVYYCAAKHPKKYSYWGQGTQVSVSS | low polyreactivity |
| QVQLVESGGGLVQAGGSLRLSCAASGSTFVKNTMGWYRQAPGKERELVAAIRSSGGSTYYADSVKGRFTISRDNAKNTVYLQMNSLKPEDTAVYYCAAGRGPEGTDDSWGQGTQVTVSS | high polyreactivity |
| QVQLVESGGGLVQAGGSLRLSCAASGSIFLYYAMGWYRQAPGKERELVAGIRRGGRTNYADSVKGRFTIPRDNAKNTVYLQMNSLKPEDTAVYYCAKGGYWGQGTQVTVSS | high polyreactivity |
| QVQLVESGGGLVQAVGSLRLSCASSGYTFDYYTMGWYRQAPGKERELVARITASGGSTYYADSVKGRFTISRDNAKNTVYLQMNSLKPEDTAVYYCAKAWYRYSRFDYWGQGTQVTVSS | high polyreactivity |
| QVQLVESGGGLFQAGGSLRLSCAASGFNFDSNVMGWYRQAPGKERELVAAITGDDTTYYADSVKGRFTISRDNAKNTVYLQMNSLKPEDTAVYYCAADETESLEYTAYDMYYWGQGTQVTVSS | low polyreactivity |
| QVQLVESGGGLVQAGGSLRLSCAASGFIFLYYAMGWYRQAPGKERELVAAISNGGSTYYADSVKGRFTISRDNAKNTVYLQMNSLKPEDTAVYYCAARYGYRYTLKYGYWGQGTQVTVSS | high polyreactivity |
| QVQLVESGGGLVQAGRSLRLSCAASGSILGGNAMGWYRQAPGKDRELVAAITFSGGGTYYADSVKGRFTISRDNAKNTVDFQMNSLKPEDTAVYYCAADKVGYTYEFDYWGQGTQVTVSS | low polyreactivity |
| QVQLVESCGGLVQAGASLRLSCAASGRTFSENAMGWYRQARGKEREFVAGNSFSGDGRTYYADSVKGRFTISRDNAKNTVYLQMNSLKPEDTAVYYCAAPHRSRTHELDYWGQGTQVTVSS | low polyreactivity |
| QVQLVESGGGLVQAGGSLRLSCAASGSIFTRNAMGWYRQAPGKERELVAAISWRGGITNYADSVKGRFTISRDNAKNTVYLQMNSLKPEDTAVYYCNKKRTRGGYGYWGQGTQVTVSS | high polyreactivity |
| QVQLVESGGGLVQAGGSLRLSCAASGYTFARYAMGWYRQATGKERELVAANTSGDRTNYADSVKGRFTISRDNAKNTVYLQMNSLKPEDTAVYYCNATLYSYDASDYWGQGTQVTVSS | low polyreactivity |
| QVQLVESGGGLVQAGGSLRLSCAASGNIFSVYAMGWYRQAPGKERELVAAISSSGGRTYYADSVKGRFTISRDNAKNTVYLQMNSLKPEDTAVYYCNTAGYDYYSTQAYDYWGQGTQVTVSS | high polyreactivity |
| QVQLVESGGGLVQAGGSLRLSCAASGRTFFTYAMGWYRQAPGKERELVAAITGSGGSTSYADSVKGRFTISRDNAKNTVYLQMNSLKPEDTAVYYCAADWQELEYDYWGQGTQVNVSS | low polyreactivity |
| QVQLVESRGGLVQAGGSLRLSCAASGLIFLHNAMGWYRQAPGKERELVAAIRDGDSTNYADSVKGRFTISRDNAKNTVYLQMNSLKPEDTAVYYCAKDPTLVAYAPGRYDYWGQGTQVTVSS | low polyreactivity |
| QVQLVESGAGLVQAGGSLRLSCAASGRIFAYNAMGWYRQAPGKERELVAGITIRGGRTYYADSVKGRFTISRYNAKNTVYLQMNSLKPEDTAVYYCNARGWYEYGWGQGTQVTVSS | high polyreactivity |
| QVQLVESGGGLVQAGGSLRLSCAASGRIFLDYVMGWYRQAPGKERELVAAISWSGDRTDYADSVKGRFTISRDNAKNTVYLQMNSLKPEDTAVYYCASTWYFAYSDDYKFDYWGQGTQVTVSS | low polyreactivity |
| QVQLVESGGGLVQAGGSLRLSCAASGRIFLGNAMGWYRQAPGKERELVDAITYSGRSTYYADSVKGRFTISRDNAKNTVYLQMNSLKPEDTAVYYCAARQYWTTDLPFQRYYYWGQGTHVTVSS | low polyreactivity |
| QDQLVESGGGLVQAGGSLRISCAASGSIFDVNAMGWYRQAPGKERELVAAISDSGGSTYYADSVKGRFTISRDNAKNTVYLEMNSLKPVDTAVYYCNADWSWYNYYDFDYWGQGTQVTVSS | low polyreactivity |
| QVQLVESGGGLVQAGGSLRLSCAASGSNFYFYAMGWYRQAPGKERELVAGITSSGASTYADSVKGRFTISRDNEKNTVYLQMNSLKPEDTAVYYCAAYYPLRKGYGYWGQGTQVTVSS | high polyreactivity |
| QVQLVESGGGLVQAGGSLRLSCAASGRTFANYVMGWYRQAPGKERELVAGMTGSGGSTYYADSVKGRFTISRDNAKNTVYLQMNSLKPEDTAVYYCAKRYVYVASMGYWGQGTQVTVSS | high polyreactivity |
| QVQLVESGGGLVQAGGSLRLSCAASGSTFRTYTMGWYRQAPGKERELVAAGGGTYYADSVKGRFTISRDNAKNTVYLQMNSLKPEDTAVYYCAAGLPIHGLRGYEYDYWGQGTQVTVSS | low polyreactivity |

| Sequence | polyreactivity (PSR sort gate) |
| --- | --- |
| QVQLVESGGGLVQAGGSLRLSCAASGRIVRRYARGWYIQAPGKERELVAAITNNGGNTYYADSVKGRFTISRDNAKNTVYLQMNSLKPEDTAVYYCKAGYYWGQGTQVTVSS | high polyreactivity |
| QVQLVESWGGLVQAGGSLRLSCAASGSTFVAYAMGGYRQAPGKEREFVAGISVRGGSTYYADSVKGRFTISRDNAKNTVYLQMNSLKPEDTAVYYCAARRVDTRVHVRYRYYYWGQGTQVTVSS | high polyreactivity |
| QVQLVESGGGLVQAGGSLRLSCAASGRIFTVYAMGWYRQAPGKERELVAAIDWSDGSTYYADSVKGRFTISRDNAKNTVYLQMNCLKPEVTAVYYCAAETYWVVEYDYWGQGTQVTVSS | high polyreactivity |
| QVQLVESGGGLVQAGGSLRLSCAPSGRIIFYNAMGWYRQAPGKERELVAAISIGGRTYYADSVKGRFTISRDNAKNTVYLQMNSLKPEDTAVYYCAALGYPYLRSGYWGQGTQVTVSS | high polyreactivity |
| QVQLVESGVCLVQAGGSLRLSCAASGSTITYNAMGWYRQAPGKERELVASISSGTTTYYADSVKGRFTISRDNAKNTVYLQMNSLHTEDTAVYYCAVDSCSRVQGWLAHNYDYWGQGTQVTVSS | low polyreactivity |
| QVQLVESGGGLVQAGGSLRLSCAASGRTLSYYAMGWYRQAPGKEREFVAAINWSGGSTYYADSVKGRFTISRDNAKNTVYLQMNSLKPEDTAVYYCAAYRPYSSSEGDYWGQGTQVTVSS | high polyreactivity |
| QVQLVESGGGLVQAGGSLRLSCAASGSTFYPYAMGWYRQAPGKERELVAAITVSGGSTYYADSVKGRFTISRDNAKNTVYLQMNSLKPEDTAVYYCAVDGDPVFYTTYYYSYYYWGQGTQVTVSS | low polyreactivity |
| QVQLVESGGGLVQAGGSLRLSCTASGRTLYNYTMGWYRQAPGKERELVAAISRGGGSTYYADSVKGRFTISRDNAKNTVYLQMNSLKQEDTAVYYCATDQTYPYCGGGDYWGQGTQVTVSS | low polyreactivity |
| QVQLVESGGGLVQAGGSLRLSCAASGFTFYRYAMGWYRQAPGKERELVAAISTSGGSTYYADSVKGRFTISRDNAKNTVYLQMNSLKPEDTAVYYCAAELLVYYWGYYYELLDYWGQGTQVSVSS | high polyreactivity |
| QVQLVESGGGLVQAGGSLRLSCAASGFTFPSYAMGWYRQAPGKERELVAVISWGGTSTYYADSVKGRFTISRDNAKNTVYLQMNSLKPEDTAVYYCATTRRVPGEYWGQGTQVTVSS | high polyreactivity |
| QVQLVESGGGLVQAGGSLRLSCTASGNTFALYAMGWYRQAPGKERELVARISRRGGSTYYADSVKGRFTISRDNAKNTVYLQMNSLKPEDTAVYYCAKTHSYYPWEVNYWGQGTQVTVSS | high polyreactivity |
| QVQLVESGGGLVQAGGSLRVSCAASGTTFPRNAMGWYRQAPGKERELVATITSAGGGTYYADSVKGRFTISRDNAKNSVYLQMNSLKPEDTAVYYCNADGPAGDAFDSWGQGTQVTVSS | low polyreactivity |
| QVQLVESGGGFVQAGGSLGLSCAASGSTFQFYALGWYRQAPGKERELVAVITSGDDTNYADSVKGRFTISRDNATYTVYLQMNSLKPEDTAVYYCAVEYILVYTRVRSYWFDYWGQGTQVTVSS | low polyreactivity |
| QVQLVESGGGLVQAGGSLRLSCAASGSIFGVYAMGWYRQAPGKERELVAVITYRDGSTYYADSVKGRFTISRVNAKNTVYLQMNSLKPEDSAVYYCAADSYLGWHSDYGVEYYYWGQGTQVTVSS | low polyreactivity |
| QVQLVESGVGFVQAGGSLRLSCAASGSTFGYYDMGWYRQAPGKERELVASIRSSGSTYYADSVKGRFTISRDNPKHTVYFQMNSLKPEDTAVYYCNTASLYHRWQGSWPKYDYWGQGTQVTVSS | high polyreactivity |
| QVQLVESGGGLVQAGGSLRLSCAASGIIFYYYAMGWYRQAPGKERELVAAISTSGGRTYYADSVKGRFTISRDNAKSTVYLQMNSLKPEDTAVYYCAKDFWYVTGGWSSGLDYWGQGTQVTVSS | low polyreactivity |
| QVQLVESGGGLVQAGGSLRLSCAASGVIFLWYAMGWYRQAPGKERELVARISNGGSTYYADSVKGRFTISRDNAKNTVYLQMISLKPEDTAVYYCNKVYYWIAYGHRSYLMDYWGQGTQVTVSS | high polyreactivity |
| QVQLQERGGGLVQAGGSLRQSCAASGTISDRAGMGWYRQAPAKNAIVATIDRGTNTNYADSVKGRFTISRDNAKNTVYLQMNSLKPEDTAVYNCAAVGRYNIYLDYWGQGTQVTVSS | low polyreactivity |
| QVQLVESGGGLVQAGGSLRLSCAASGRTFGRYAMGWYRQAPGKERELVAAISSSGGRTNYADSVKGRFTISRDNAKNTVYLQMNSLKPEDTAVYYCAAAGQRPYEKGDYWGQGTQVTVSS | low polyreactivity |
| QVQLVDSGGGLVQAGGSLRLSCPASGSTFLVYAMGWYRQAPGKERELVAVITYSTVRTYYADSVKGRFTISRDNAKNTVYLQMNSLKPEDTAVYHCNADKEFAVLGQGMDFWGQGTQVTVSS | low polyreactivity |
| QVQLVESGGGLDQAGGSLRLSCAASGRNYGLYAMGWYIQAPWKERELVAAITRTASTNYADSVNGRFTISRDNAKNTVYLQMNSLKPEDTAVYYCAAESWYPSDLWYTYEYWGQGTQVTVSS | low polyreactivity |
